Measured values as given in article PMC5446404, “Fortilin binds IRE1α and prevents ER stress from signaling apoptotic cell death” (Nature Communications, 2017).

How the values were obtained:
[1] = biological target: GST-IRE1α-C (aa 468-977) (human, UniProt O75460 468-977); experiment: cell-based or functional assay
[2] = biological target: T1, bovine serum albumin (bovine, UniProt P02769 25-607); experiment: BLI; BLItz (ForteBio); biotinylated fortilin immobilised on streptavidin-coated biosensors (25 μg/mL, 600 s), buffer exchange in PBS; analyte at various concentrations for 180 s, dissociation in PBS for 300 s; three independent experiments; conditions: both partners purified
T1 construct: serum albumin, bovine; negative control of the biolayer interferometry; also called BSA; source: bought: Sigma-Aldrich
T1 sequence (P02769 25-607): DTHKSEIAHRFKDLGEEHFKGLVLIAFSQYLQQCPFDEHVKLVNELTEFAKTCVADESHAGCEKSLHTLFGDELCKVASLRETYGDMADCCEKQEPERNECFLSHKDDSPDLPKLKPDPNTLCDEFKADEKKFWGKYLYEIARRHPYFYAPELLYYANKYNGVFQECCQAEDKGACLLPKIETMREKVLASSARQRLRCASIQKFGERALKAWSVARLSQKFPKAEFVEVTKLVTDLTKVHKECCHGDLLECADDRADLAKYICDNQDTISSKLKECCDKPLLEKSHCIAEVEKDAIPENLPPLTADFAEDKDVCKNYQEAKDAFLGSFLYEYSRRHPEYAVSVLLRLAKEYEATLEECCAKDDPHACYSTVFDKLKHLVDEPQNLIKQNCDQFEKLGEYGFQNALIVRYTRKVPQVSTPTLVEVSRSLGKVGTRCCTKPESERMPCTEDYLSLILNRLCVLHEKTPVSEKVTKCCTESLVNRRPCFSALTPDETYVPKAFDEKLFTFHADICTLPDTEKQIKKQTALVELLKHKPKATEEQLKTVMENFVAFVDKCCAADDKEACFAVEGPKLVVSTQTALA

Sequence of GST-IRE1α-C (aa 468-977) (O75460 468-977): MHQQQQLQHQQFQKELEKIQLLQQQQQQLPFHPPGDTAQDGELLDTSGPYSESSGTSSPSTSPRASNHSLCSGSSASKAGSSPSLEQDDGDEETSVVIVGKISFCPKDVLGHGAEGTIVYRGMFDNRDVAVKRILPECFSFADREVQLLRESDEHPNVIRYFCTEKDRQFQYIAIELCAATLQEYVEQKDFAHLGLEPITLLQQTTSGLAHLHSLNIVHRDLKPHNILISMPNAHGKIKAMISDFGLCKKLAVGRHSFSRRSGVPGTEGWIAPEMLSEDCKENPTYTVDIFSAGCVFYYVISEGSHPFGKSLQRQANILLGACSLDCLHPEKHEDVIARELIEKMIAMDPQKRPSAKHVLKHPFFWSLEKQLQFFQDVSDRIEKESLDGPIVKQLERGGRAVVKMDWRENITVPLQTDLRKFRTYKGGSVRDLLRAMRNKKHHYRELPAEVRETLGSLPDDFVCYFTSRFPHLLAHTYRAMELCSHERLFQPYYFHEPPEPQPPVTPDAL

B1: recombinant human fortilin (Strep-tag II), biotinylated (natural protein, UniProt P13693 1-172, looked up)
chain: MIIYRDLISHDEMFSDIYKIREIADGLCLEVEGKMVSRTEGNIDDSLIGGNASAEGPEGEGTESTVITGVDIVMNHHLQETSFTKEAYKKYIKDYMKSIKGKLEEQRPERVKPFMTGAAEQIKHILANFKNYQFFIGENMNPDGMVALLDYREDGVTPYMIFFKDGLEMEKC
modifications: biotinylated (sites not given)
notes: fortilin (translationally controlled tumor protein), human, described as a 172-amino-acid polypeptide; cDNA encoding human fortilin cloned into pESG-IBA5; Biotinylated for BLI; also called translationally controlled tumor protein; Strep-tagged fortilin; source: 293T cells stably expressing it, purified (Strep-Tactin-Superflow resin)
B1 was tested, and the “in vitro IRE1α kinase activity: incorporation of γ-33P from [γ-33P]ATP into myelin basic protein; IC50 of fortilin” value [1] was 0.77 µM and the Kd [2] was 1.05 mM.
